Assay results from US20220143213.

B1: recombinant IdeZ (NEB P0770S or Genscript) (protein)
chain: MKTIAYPNKPHSLSAGLLTAIAIFSLASSNITYADDYQRNATEAYAKEVPHQITSVWSKGVTPLTPEQFRYNNEDVIHAPYLAHQGWYDITKAFDGKDNLLCGAATAGNMLHWWFDQNKTEIEAYLSKHPEKQKIIFNNQELFDLKAAIDTKDSQTNSQLFNYFRDKAFPNLSARQLGVMPDLVLDMFINGYYLNVFKTQSTDVNRPYQDKDKRGGIFDAVFTRGDQTTLLTARHDLKNKGLNDISTIIKQELTEGRALALSHTYANVSISHVINLWGADFNAEGNLEAIYVTDSDANASIGMKKYFVGINAHGHVAISAKKIEGENIGAQVLGLFTLSSGKDIWQKLS
B2: recombinant GST-IdeZ (N-terminally GST tagged IdeZ fusion) (protein)
chain: MKTIAYPNKPHSLSAGLLTAIAIFSLASSNITYADDYQRNATEAYAKEVPHQITSVWSKGVTPLTPEQFRYNNEDVIHAPYLAHQGWYDITKAFDGKDNLLCGAATAGNMLHWWFDQNKTEIEAYLSKHPEKQKIIFNNQELFDLKAAIDTKDSQTNSQLFNYFRDKAFPNLSARQLGVMPDLVLDMFINGYYLNVFKTQSTDVNRPYQDKDKRGGIFDAVFTRGDQTTLLTARHDLKNKGLNDISTIIKQELTEGRALALSHTYANVSISHVINLWGADFNAEGNLEAIYVTDSDANASIGMKKYFVGINAHGHVAISAKKIEGENIGAQVLGLFTLSSGKDIWQKLS

Columns and labels:
[1] = target: IgG present within human serum
[2] = target: IgG from dog serum
[3] = target: IgG present within primate serum
[4] = target: IgG present within mouse serum
[5] = target: human intravenous immunoglobulin (IVIG)

Protein	IgG cleavage, reducing SDS-PAGE with Coomassie stain [1]	IgG cleavage, reducing SDS-PAGE with Coomassie stain (Donors 1-5) [1]	IgG cleavage, SDS-PAGE [2]	IgG cleavage, reducing SDS-PAGE with Coomassie stain [3]	IgG cleavage, reducing SDS-PAGE with Coomassie stain [4]	IVIG cleavage in vitro, reducing SDS-PAGE with Coomassie stain [5]	IgG cleavage, SDS-PAGE with Coomassie stain (heavy chain cleavage product ~31 kDa) [1]	IgG cleavage, SDS-PAGE with Coomassie stain (heavy chain cleavage product ~31 kDa) [3]
B1	IgG present within serum was cleaved by IdeZ	IdeZ also cleaved IgG in serum samples from additional human patients (Donors 1-5)	IdeZ can cleave IgG from dog serum	IgG present within serum was cleaved by IdeZ	IgG present within serum was cleaved by IdeZ	IdeZ cleaved human IVIG in vitro		
B2						IdeZ cleaved human IVIG in vitro	GST-IdeZ cleaved IgG present within human and primate serum	GST-IdeZ cleaved IgG present within human and primate serum
